Laboratory results reported in PMC3583667 (Molecular Biology of the Cell, 2013).
Where two headings read alike, the source gives them in different places.

What was measured:
Assay in all cases: co-IP
EGFP–Rab11-FIP1A [1] = molecular target: T1, EGFP–Rab11-FIP1A (UniProt Q6WKZ4-1 1-612)
T1 sequence (looked up): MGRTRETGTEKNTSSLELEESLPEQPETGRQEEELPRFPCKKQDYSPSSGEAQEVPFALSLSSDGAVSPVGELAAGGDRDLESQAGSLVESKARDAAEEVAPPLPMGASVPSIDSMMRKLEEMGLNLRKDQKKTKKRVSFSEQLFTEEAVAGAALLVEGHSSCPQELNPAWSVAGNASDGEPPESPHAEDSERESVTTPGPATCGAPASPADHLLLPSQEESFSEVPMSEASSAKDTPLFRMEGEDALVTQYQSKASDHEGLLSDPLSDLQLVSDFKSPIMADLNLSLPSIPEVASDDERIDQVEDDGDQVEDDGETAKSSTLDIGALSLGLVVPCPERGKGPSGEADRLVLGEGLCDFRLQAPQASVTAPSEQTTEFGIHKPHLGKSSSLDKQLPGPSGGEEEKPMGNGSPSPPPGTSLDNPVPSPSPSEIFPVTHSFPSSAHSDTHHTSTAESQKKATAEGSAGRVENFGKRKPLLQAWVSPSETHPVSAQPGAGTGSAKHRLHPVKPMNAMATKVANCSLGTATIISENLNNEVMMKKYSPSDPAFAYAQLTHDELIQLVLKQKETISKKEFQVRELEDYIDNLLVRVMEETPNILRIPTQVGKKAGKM

EGFP–Rab11-FIP1B [2] = molecular target: T2, EGFP–Rab11-FIP1B (UniProt Q6WKZ4-4 1-1283)
T2 sequence (looked up): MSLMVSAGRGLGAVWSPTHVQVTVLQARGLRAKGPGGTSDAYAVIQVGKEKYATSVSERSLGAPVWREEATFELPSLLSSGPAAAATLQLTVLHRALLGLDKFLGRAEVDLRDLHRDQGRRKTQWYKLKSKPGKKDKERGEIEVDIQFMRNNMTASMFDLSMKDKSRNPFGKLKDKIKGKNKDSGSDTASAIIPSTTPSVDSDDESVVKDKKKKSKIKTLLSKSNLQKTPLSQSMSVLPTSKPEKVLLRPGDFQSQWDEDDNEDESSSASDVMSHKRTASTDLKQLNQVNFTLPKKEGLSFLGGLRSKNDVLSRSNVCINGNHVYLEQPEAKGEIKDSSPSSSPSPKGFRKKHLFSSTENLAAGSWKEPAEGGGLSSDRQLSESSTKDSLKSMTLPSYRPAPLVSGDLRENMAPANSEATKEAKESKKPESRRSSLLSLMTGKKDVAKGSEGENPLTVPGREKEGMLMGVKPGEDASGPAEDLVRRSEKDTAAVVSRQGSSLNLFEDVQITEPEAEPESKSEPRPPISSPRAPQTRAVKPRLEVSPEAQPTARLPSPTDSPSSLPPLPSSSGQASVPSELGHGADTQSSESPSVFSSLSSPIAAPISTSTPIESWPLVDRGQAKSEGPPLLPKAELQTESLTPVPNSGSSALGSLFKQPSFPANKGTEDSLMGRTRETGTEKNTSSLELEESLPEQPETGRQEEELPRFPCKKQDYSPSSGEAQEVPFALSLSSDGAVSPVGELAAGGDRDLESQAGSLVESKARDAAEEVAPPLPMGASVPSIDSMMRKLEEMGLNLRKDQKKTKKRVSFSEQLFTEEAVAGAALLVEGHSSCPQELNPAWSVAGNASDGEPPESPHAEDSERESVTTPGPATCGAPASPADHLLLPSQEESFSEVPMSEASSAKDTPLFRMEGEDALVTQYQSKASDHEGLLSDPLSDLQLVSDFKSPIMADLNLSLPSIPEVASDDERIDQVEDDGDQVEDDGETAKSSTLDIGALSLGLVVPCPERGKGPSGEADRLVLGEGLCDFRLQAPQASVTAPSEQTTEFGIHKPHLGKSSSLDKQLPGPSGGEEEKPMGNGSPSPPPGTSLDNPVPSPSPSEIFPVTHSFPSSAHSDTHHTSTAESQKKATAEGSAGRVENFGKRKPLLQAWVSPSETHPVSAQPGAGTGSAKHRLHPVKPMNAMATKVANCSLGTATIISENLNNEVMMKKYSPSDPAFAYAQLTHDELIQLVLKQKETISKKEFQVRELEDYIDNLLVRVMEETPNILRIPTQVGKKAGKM

EGFP–Rab11-FIP1C [3] = molecular target: T3, EGFP–Rab11-FIP1C (UniProt Q6WKZ4-3 1-649)
T3 sequence (looked up): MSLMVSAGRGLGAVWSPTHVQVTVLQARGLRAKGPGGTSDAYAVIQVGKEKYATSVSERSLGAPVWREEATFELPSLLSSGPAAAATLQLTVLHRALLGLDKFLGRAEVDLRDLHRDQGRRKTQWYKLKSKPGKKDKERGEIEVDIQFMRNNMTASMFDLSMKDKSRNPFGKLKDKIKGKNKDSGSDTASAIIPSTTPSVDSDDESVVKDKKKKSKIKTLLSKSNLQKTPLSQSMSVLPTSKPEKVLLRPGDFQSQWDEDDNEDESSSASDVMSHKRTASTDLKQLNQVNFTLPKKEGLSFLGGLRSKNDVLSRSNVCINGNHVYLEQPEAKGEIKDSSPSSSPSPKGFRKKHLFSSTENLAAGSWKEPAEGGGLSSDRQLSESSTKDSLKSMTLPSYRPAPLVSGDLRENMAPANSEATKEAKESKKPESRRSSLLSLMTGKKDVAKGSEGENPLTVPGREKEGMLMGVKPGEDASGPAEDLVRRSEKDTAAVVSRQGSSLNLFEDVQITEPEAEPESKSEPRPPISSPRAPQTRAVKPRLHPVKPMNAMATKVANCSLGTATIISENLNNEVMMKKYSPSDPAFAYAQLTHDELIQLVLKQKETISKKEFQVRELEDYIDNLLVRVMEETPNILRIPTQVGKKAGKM

EGFP–Rab11-FIP1A [4] = molecular target: T1, EGFP–Rab11-FIP1A; remark: listed apart in the source
EGFP–Rab11-FIP1B [5] = molecular target: T2, EGFP–Rab11-FIP1B; remark: listed apart in the source
EGFP–Rab11-FIP1C [6] = molecular target: T3, EGFP–Rab11-FIP1C; remark: listed apart in the source

percentage of total FIP1A recovered on the beads (EGFP–Rab11-FIP1A [1]): 15.2%
percentage of total FIP1A recovered on the beads (EGFP–Rab11-FIP1B [2]): 11.8%
percentage of total FIP1A recovered on the beads (EGFP–Rab11-FIP1C [3]): 15.2%
percentage of total FIP1A recovered on the beads (EGFP–Rab11-FIP1A [4]): 18.6%
percentage of total FIP1A recovered on the beads (EGFP–Rab11-FIP1B [5]): 13.4%
percentage of total FIP1A recovered on the beads (EGFP–Rab11-FIP1C [6]): 11.6%
B1: mCherry–Rab11-FIP1A (natural protein, UniProt Q6WKZ4-1 1-612, looked up)
chain: MGRTRETGTEKNTSSLELEESLPEQPETGRQEEELPRFPCKKQDYSPSSGEAQEVPFALSLSSDGAVSPVGELAAGGDRDLESQAGSLVESKARDAAEEVAPPLPMGASVPSIDSMMRKLEEMGLNLRKDQKKTKKRVSFSEQLFTEEAVAGAALLVEGHSSCPQELNPAWSVAGNASDGEPPESPHAEDSERESVTTPGPATCGAPASPADHLLLPSQEESFSEVPMSEASSAKDTPLFRMEGEDALVTQYQSKASDHEGLLSDPLSDLQLVSDFKSPIMADLNLSLPSIPEVASDDERIDQVEDDGDQVEDDGETAKSSTLDIGALSLGLVVPCPERGKGPSGEADRLVLGEGLCDFRLQAPQASVTAPSEQTTEFGIHKPHLGKSSSLDKQLPGPSGGEEEKPMGNGSPSPPPGTSLDNPVPSPSPSEIFPVTHSFPSSAHSDTHHTSTAESQKKATAEGSAGRVENFGKRKPLLQAWVSPSETHPVSAQPGAGTGSAKHRLHPVKPMNAMATKVANCSLGTATIISENLNNEVMMKKYSPSDPAFAYAQLTHDELIQLVLKQKETISKKEFQVRELEDYIDNLLVRVMEETPNILRIPTQVGKKAGKM
